Source: PMC9588060

How the values were obtained:
[1] = target: PD-L1 (coated in the ELISA) (not stated (human or mouse PD-L1 coated)) (UniProt Q9NZQ7); experiment: ELISA; human PD-L1
[2] = target: PD-L1 (coated in the ELISA) (not stated (human or mouse PD-L1 coated)) (UniProt Q9NZQ7); experiment: ELISA; mouse PD-L1; conditions: Fc fusion
[3] = target: PlGF (UniProt P49763); experiment: ELISA; conditions: Fc fusion
[4] = target: hVEGFA165 (human) (UniProt P15692); experiment: ELISA; conditions: Fc fusion
Sequence of hVEGFA165 (human) (P15692 other isoform, or with tags, fused parts or gaps): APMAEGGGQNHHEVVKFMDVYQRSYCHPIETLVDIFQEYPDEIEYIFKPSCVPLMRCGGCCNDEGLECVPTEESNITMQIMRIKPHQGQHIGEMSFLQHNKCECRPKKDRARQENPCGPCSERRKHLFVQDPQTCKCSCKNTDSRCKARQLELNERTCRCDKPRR

Sequence of PD-L1 (coated in the ELISA) (not stated (human or mouse PD-L1 coated)) (Q9NZQ7 19-290): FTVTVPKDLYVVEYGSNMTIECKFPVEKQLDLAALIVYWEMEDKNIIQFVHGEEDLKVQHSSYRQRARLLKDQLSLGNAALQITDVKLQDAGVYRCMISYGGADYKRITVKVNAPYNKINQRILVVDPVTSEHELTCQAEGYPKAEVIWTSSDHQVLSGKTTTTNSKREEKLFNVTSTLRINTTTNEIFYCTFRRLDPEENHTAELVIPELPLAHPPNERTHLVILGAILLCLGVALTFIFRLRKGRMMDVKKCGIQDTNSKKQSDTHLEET
Sequence of Ate-Grab (P17948 whole entry, looked up): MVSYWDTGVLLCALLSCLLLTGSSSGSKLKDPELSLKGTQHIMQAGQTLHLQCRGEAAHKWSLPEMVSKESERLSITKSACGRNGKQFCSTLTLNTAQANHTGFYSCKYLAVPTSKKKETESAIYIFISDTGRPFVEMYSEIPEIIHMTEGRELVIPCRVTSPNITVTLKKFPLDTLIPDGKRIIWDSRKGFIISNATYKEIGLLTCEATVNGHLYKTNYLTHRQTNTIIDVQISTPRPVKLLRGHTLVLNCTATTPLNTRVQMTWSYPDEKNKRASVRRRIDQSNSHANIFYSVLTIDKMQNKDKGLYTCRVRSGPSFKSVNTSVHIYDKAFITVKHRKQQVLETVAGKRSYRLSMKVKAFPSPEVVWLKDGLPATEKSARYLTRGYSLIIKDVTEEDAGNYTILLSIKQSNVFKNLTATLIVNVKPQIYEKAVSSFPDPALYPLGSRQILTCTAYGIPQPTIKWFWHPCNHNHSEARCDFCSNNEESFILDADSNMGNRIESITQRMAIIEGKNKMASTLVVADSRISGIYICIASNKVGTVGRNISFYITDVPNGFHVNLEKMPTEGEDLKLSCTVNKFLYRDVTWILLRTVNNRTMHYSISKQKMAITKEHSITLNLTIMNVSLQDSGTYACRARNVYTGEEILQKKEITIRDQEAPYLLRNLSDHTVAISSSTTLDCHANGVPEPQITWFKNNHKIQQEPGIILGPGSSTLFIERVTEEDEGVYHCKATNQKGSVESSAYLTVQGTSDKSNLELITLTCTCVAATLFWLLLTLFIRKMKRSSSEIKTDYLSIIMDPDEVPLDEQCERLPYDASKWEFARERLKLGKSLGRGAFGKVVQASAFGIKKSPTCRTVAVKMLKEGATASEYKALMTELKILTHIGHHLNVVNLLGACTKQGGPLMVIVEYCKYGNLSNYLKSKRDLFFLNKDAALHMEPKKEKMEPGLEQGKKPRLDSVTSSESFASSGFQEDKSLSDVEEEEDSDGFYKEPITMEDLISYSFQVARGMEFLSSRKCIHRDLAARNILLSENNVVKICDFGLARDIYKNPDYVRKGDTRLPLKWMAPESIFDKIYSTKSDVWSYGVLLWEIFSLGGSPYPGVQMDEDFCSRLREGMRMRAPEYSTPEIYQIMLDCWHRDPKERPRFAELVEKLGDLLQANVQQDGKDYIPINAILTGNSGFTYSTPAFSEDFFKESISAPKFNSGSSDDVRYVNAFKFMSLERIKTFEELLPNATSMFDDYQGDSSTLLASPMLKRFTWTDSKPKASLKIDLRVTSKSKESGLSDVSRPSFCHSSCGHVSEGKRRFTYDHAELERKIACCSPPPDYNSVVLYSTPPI
Sequence of VEGF-Grab (P17948 whole entry, looked up): as above
Sequence of PlGF (P49763 19-221): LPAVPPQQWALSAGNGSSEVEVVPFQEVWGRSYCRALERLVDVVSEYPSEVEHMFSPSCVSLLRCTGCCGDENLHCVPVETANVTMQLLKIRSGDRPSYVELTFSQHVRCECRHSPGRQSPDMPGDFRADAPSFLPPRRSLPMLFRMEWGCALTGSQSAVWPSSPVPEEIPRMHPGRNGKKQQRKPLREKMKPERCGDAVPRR

Row | EC50 ([1]; Fc fusion) | EC50 [2] | EC50 [3] | EC50 [4] | EC50 [1] | Substance
1 | 0.222 nM | 0.374 nM | 0.929 nM | 0.652 nM |  | Ate-Grab (from UniProt P17948)
2 |  |  |  |  | 0.107 nM | Atezolizumab
3 |  |  | 0.619 nM | 0.686 nM |  | VEGF-Grab (from UniProt P17948)
